Measurements taken from a protein production outcome set (Wang et al. 2014).

Assay: label from the status in PepcDB records

| Sequence | protein production |
| --- | --- |
| MKFGEHLSKSLIRQYSYYYISYDDLKTELEDNLSKNNGQWTQELETDFLESLEIELDKVYTFCKVKHSEVFRRVKEVQEQVQHTVRLLDSNNPPTQLDFEILEEELSDIIADVHDLAKFSRLNYTGFQKIIKKHDKKTGFILKPVFQVRLDSKPFFKENYDELVVKISQLYDIARTSGRPIKGDSSAGGKQQNFVRQTTKYWVHPDNITELKLIILKHLPVLVFNTNKEFEREDSAITSIYFDNENLDLYYGRLRKDEGAEAHRLRWYGGMSTDTIFVERKTHREDWTGEKSVKARFALKERHVNDFLKGKYTVDQVFAKMRKEGKKPMNEIENLEALASEIQYVMLKKKLRPVVRSFYNRTAFQLPGDARVRISLDTELTMVREDNFDGVDRTHKNWRRTDIGVDWPFKQLDDKDICRFPYAVLEVKLQTQLGQEPPEWVRELVGSHLVEPVPKFSKFIHGVATLLNDKVDSIPFWLPQMDVDIRKPPLPTNIEITRPGRSDNEDNDFDEDDEDDAALVAAMTNAPGNSLDIEESVGYGATSAPTSNTNHVVESANAAYYQRKIRNAENPISKKYYEIVAFFDHYFNGDQISKIPKGTTFDTQIRAPPGKTICVPVRVEPKVYFATERTYLSWLSISILLGGVSTTLLTYGSPTAMIGSIGFFITSLAVLIRTVMVYAKRVVNIRLKRAVDYEDKIGPGMVSVFLILSILFSFFCNLVAK | failed |
| MFNKISLEIMKRSALTLMPTVLALAVGMAMPAVQAAINSDASVVGTESQWWNTYKVTLTNNGNQPVELRDASIAFDTNLSLSTPSWSAQGISYPSMSFSSNAQGSVFSNRLTLSFDQGSWVKTQLLPGASIDLTLGVSGVLELSLLQSTIALETDGEVEPGEPEISLELASPVQGAEFIEGQTVAIVANVTATNTTVKTVTFLVDGEQIALLEQAPFQASWTAAGEGAHSIKAIVEDASGLLKEQAVRITVKAEEIDPPVEPEVPVAPVIELTNPRNGQSVFLGKVTTLAANATDENNDLTAVEFLVNGESIGRVTQAPYQLAWTPVALGQYTIEAIAYDAAGHQTQTPMVTVNAKEMGTGNLSCDIKQIYREDGTECMGDDHPRRIIGYYTSWRTGKNGLPAYLAGDLPWEKLTHINYAFASINKSDFSMQVDDSATKMTWENVPGAEMDPSLPYQGHFNLLSKFKKQYPDVKTLISVGGWAETGGFYPMTTDLASCSVNMEGIKAFNKSAVDFIRQYDFDGVDIDYEYPSSMKDSGNPVDFEQSNKCRGQLWDNYMVMMTELRKALDKAGEEDGRRYMLTIASPSSAYLLRGMQDFAMQDVLDYVNIMSYDLHGTWNEFVGPQAALFDDGKDAELAKWGVYTTAEYQGIGYLNQAWTHHFFRGAFKPSQINMGIPYYTRGWQGVSGGDKGLWGRAVEPNQSSCPEGTTVCGWGAEGTDNIWHDVDANGNEIKAGVVPMWHAMNLMHAEKLGIDGMPSYGPAWGMDPNNPKHLIEGKYERVWSQELQTAWLWNDTKKVFLSIEDKDSLKPKLDYIVDNGLGGMMIWEMAGDYSYDAVKREYVIGSDMTSYAHEVFAAAKPMDIRHNDLPQPDSVIDVTVSTTEWPEGDSNYPINPKLVFTNHSNVAIPGGSTIEFLMPTSSGDIVKDWSGAGLKVIESGHTGSNFSVNGEKKLFHKVAVTLRSTETIPAGGEYSVDMVYYTPVSGVANGVRFIVGNETVGLKKDFPTLPAFEGATDGGNGNEGGAGQSCADAGINPNGLKVYPEFPRGDHAAGGDQLIHNGSVWQANWWTNSTPSSADASWKAVCKI | failed |
| MIIYILINIAIVLLILGFDLYRHRFRQLKFSSILLSVLINSMIDIFAINQFNFITMFTVTLFMIWTLLQIYLNFKLYPFVISDQKFIAIILAIVISLLQFITDKSSTQSVYMSIPYLSPTIFIIGAILLFVGTFKIDEVERLSLFRKIKRPMTTGTIIIILSLISTMILTPFWYVFLIIYSLLIGFILWQGVFFIKDKK | failed |
| MNAPSLKEENALTITRVFDAPANLVFKVWTTPEHLARWWGPKGFTVPAITTDFREGGAWRGCIRSPEGQDYWAHGIYREIVAPSRIVLSFVWEEEGAIDTLITVTLEDVAGGTRLTFHQAPFTSAESRDSHAEGWSECMDRLVSYVAARKEEVQ | failed |
| MIDPRPVGYILGLLVATLGALMLVPMALDLAAGDRHWLSFAETATITTVAGSMLALACANGRGQGTGLSLQQSFLLTTGAWVLLPVFGALPFMMGRPDASFTDAVFEAMSGFTTTGTTVFVGLDALPLGTNLWRGMLQWLGGLGIVIVAMIFLPVMKVGGMQFFRSEGFDTLGKILPRALDISTALIQIYLVLTMACVMTFLALGIPLFEAVVHALTTVSTGGFSSSDRSFGLFQGPAEYACAFFMVLASLPFVRFVQLAQGTFLPLWRDPQVRAYLRWNGYAIGLIVAYEVVTRNAPVLPTLRETTFNVISTFSGTGFSSVDLGLWGTFPFVLLIVVGLIGGCTSSTGCSVKVFRYLILLEAIKVQIRRLQSPSAVIFVDYEGRRVGEDVINSVILFFTMFILSFGVLAVLLSLTGLQTKTAITAAWTAIANVGPAFGPEVSATGAVDRFPAVAKWLMIGGMLVGRLELLSVFVLLTPRFWRS | failed |
| MQLEHILRSYARYAPVYDHTFGWLLNFRGRSLAAHLTNRRPGRILEVGVGTGISLPFYRKEHQVHGIDISPHMLERARRRVHSKNLDHVVRLEIMDAREMAFPDDYFDAVVAAYVMSVVPEPQRVLREIERVCKAGGDVIIVNHFAADKKGTRRHFEALLSPLSHKLGWRPDMPIDEILAHTSLHEVRRQTLPPMGLFTLLHLKKASPDFADPARP | failed |
| MKFFSLADEAEFKSIIISKNKAVDVIGSKLGGQVVSFSDEWFASAENLIQPTAPIRDPTRFVHSGAWYDGWETRRHNEMEYDWVIIKMGVAAAHIIGGEIDTAFFNGNHAPFVSIEALYDEGEEGNIVEDDSRWVEIVEKFECGPSQRHLFVRGNGLTKERFTHIKLKMYPDGGIARFRLYGRVVPPELKTKDHIIDLAYVCNGAVALKYSDQHFGSVDNLLLPGRGHDMSDGWETKRSRQPGHTDWAVIQLGRESSFIEKIIVDTAHFRGNFPQFITVEGCLKESESSENTGEGTWVELVGKSKTGPDKEHVYEIRKSIRVSHVKLTIIPDGGVKRIRVWGY | not failed |
| MTYNVTALVGNAGNQDTSGVRVDFVDNGVRVGSYTIPLLRSGETTTVVFNWTPMTVGSHTLQLIIDPENHIQETNETNNRIIL | failed |
| MERHVNYTLIGGLFFLCLVCMVGFILWLGHLGLDDGKYYEYVVYTDKDLGGIATNSPINYKGIQVGNVIKVGFAKDKVGVVRLDLMIKSSVKIRKDSKVAVSSRGFMGLKFLALEQSHNEEFYGSGDKGERILIFKEGLMDRLSGDANQVVQEVMKAIRNVNRILDDENVEKFKHILASVDDLIANLDSRKTQFDSLISNANNLVSNVNNVALDVDKRLKQGQYDFKAMFTPLIMQAQLSLRNIDNFVEKGSALIDKFDANPYKTIFGERK | failed |
| MSWYRRTKLVFDSLRRNINPKILPRSHVTSRINNPIGSSNPSAKFSSISSREVGLRSWTSLGRNTNRIAYNPFLSQPKRYYYVDRYQVRHFKPRGPGRWFQNPRTVFTVVLVGSVGLITLIVGNTETIPYTKRTHFILLSKPMEKLLGETQFEQIKKTYQGKILPATHPESIRVRLIAKEVIDALQRGLSNERVWSDLGYASTESSLGGGSDKGVKEMEMAMSGEDTMTDMKWSKEDQVLDDQWIQKSRKKDSKAHAATSHLEGISWEVLVVNEPIVNAFCLPAGKIVVFTGLLNHFKSDAEVATVIGHEVGHAVARHVAEGITKNLWFAILQLVLYQFVMPDLVNTMSALFLRLPFSRKMEIEADYIGLLLLASAGYDPRVAPTVYEKLGKLGGDALGDYLSTHPSGKKRSKLLAQANVMEEALMIYREVQAGRTGVEGFL | failed |
| MIGGSLDAFIGSVHRMAAALDGTIELVCGAFSSNAARSIQTGEALHLPKERIYASYEEMIVQEAQLPADVRMQFVSIVTPNHLHAQPALLALKHGFHVLCEKPLAFSVAEAEQLGIQVKETGLLFGLTHTYTAYPMVKEARDLIAKGKLGTIRKIIVEYPQGWLSAPIESDGQKQAGWRTDPAQAGLSCCVGDIGTHAENIAEYITGLKITELSADVSSVVAGRKLDDDANILLRFDNGAKGVLIASQIANGEENELKIRVYGEHAGLEWLQSEPNTLIVKQNDQPTQLRRAGANHSYLSEHARLHCRIPAGHPEGYIEAMANIYRNFSKAVHSFEDQITHNPLLDYPTIEDGIRGMKFIETVIISGKENATWKQLLEHHHHHH | not failed |
| MYSYADRIRAVALYIKLGLRVRATIRQLGYPTKNALKGWYQHYLKHQDLPASQAPRAPKYSLQQRQVAIAHYLAHDRCIAATMRALGYPGRGTLTAWVRQDCPDTCKSRVGRSWPATKPDALMCEGVVQLCARRSSAQQIADKLGVCRGTLYNWKNQLLGPCAPASMKHSPKRSPVLDEAALRRQVESLRQDVRRLKIERELLKQAHEILKNGADIDLHRLANKDKAVLVEALHGQYELPELLSLVGLARSSYFYHRARLKLADKYVDLRRSITEIFDNNYRCYGYRRVQASLLKECTGISEKVVRRLMKQEGLIVAKPKRRRYNSYLGEIGAAPQNLINRDFRAAAPNEKWLTDITELQIPAGKVYLSPVIDCFDGLVVSWSIGTHPNAHLVNTMLDAAIDAVQGSESRPVIHSDRGAHYRWPGWLSRVHDAKLTRSMSRKGCSPDNAACEGFFGRLKMELFYPNNWQSTTIEQFIEAVDAYIRWYNEKRIKVSLGRLSPVEYRHKLGLAA | failed |
| MSGHKCYSWELQDRFAQDKSVVNKMQQKYWETKQAFIKATGKKEDEHVVASDADLDAKLELFHSIQRTCLDLSKAIVLYQKRICFLSQEENELGKFLRSQGFQDKTRAGKMMQATGKALCFSSQQRLALRNPLCRFHQEVETFRHRAISDTWLTVNRMEQYRTEYRGALLWMKDVSQELDPDLYKQMEKFRKVQTQVRLAKKNFDKLKMDVCQKVDLLGASRCNLLSHMLATYQTTLLHFWEKTSHTMAAIHESFKGYQPYEFTTLKSLQDPMKKLVEKEGKKTSWRENREAVAPEPRQLISLEDEHKDSSTYKTEEGTSVLSSVDKGSVHDTCSGPIDELLDGKPEEACLGPTAGTPEPESGDKDDLLLLNEIFSTSCLDEGEFSREWAAVFGDDRLKEPAPMGAQGEPDPKPQIGSGFLPSQLLDQNMKDLQASLQEPAKAASDLTAWFSLFADLDPLSNPDAVGKTDKEHELLNA | failed |
| MGLFFAQNMMYNHTITVYDRNYELVKVIPDEVDLSKYGHSRFKGKYRGAPVEASFSHNGKYAWISNYQMYGPGFNNPGSDKCHPSQKTDKSFLYRINTETLKIDRVIPVGSVPKFVATSTDENLILVSNWCSWDLSVVDINQNQEIKRIKLGPYPRGIVVDPASETAYVAVMGSYNIAKVNLRDFSVQWLRNIGSSPRHLNIDPAGKYLYASLNGEGKIAKISLPQGNLVKKIATGNAPRSMVLSANGQTLYVVNYGEDTVSKVRTSDMKVLQKVKVEPDPIGITYDPQTREVWVACYSGNIMIFQDLEHHHHHH | not failed |
| MSNAITMGIFWHLIGAASAACFYAPFKKVKKWSWETMWSVGGIVSWIILPWAISALLLPNFWAYYSSFSLSTRLPVFLFGAMWGIGNINYGLTMRYLGMSMGIGIAIGITLIVGTLMTPIINGNFDVLISTEGGRMTLLGVLVALIGVGIVTRAGQLKERKMGIKAEEFNLKKGLVLAVMCGIFSAGMSFAMNAAKPMHEAAAALGVDPLYVALPSYVVIMGGGAIINLGFCFIRLAKVKDLSLKADFSLAKSLIIHNVLLSTLGGLMWYLQFFFYAWGHARIPAQYDYISWMLHMSFYVLCGGIVGLVLKEWNNAGRRPVTVLSLGCVVIIVAANIVGIGMAN | failed |
| MYSALLNADIRIYGYLRASTDEQDASRAKNELMLFAEQMGFQVACWFEENESGAQLKRPELFRLLDIAISGDVILVEQVDRISRLNTQDWEKLKLMINKKGLKVVSLDLPTSYQFMSNTDDFTERMLSALNGMMLDMLAAVARKDYEDRRRRQAQGVQRAKLEGKYKGRPINTKLHNKIEGLLRENKSYSQIENLLGCSRHTISKVSKLIKSSIG | failed |
